Measured values reported in PMC4007455.

Columns and labels:
[1] = biological target: RNA polymerase II in isolated early elongation complexes (human (endogenous in HeLa)) (UniProt P24928)
[2] = biological target: RNA polymerase II in isolated early elongation complexes (human (endogenous in HeLa)) (UniProt P24928); remark: listed apart in the source

Q: For “Gdown1 CTD(197–368) (from UniProt P0CAP2-1 197-368) (domain or fragment)”, which amount of Gdown1 CTD titrated onto EECs that completely blocks elongation stimulation by 0.1 pmol TFIIF, in vitro transcription, 7-min chase [1] is on record?
A: 20 pmol

Q: Which block of TFIIF (0.1 pmol)-dependent runoff by 1 pmol ΔLPDKG mutant, in vitro transcription on isolated EECs, 7-min chase (blocks TFIIF acting on Pol II) [2] does the source give for “Gdown1 ΔLPDKG deletion mutant (from UniProt P0CAP2-1 1-368) (natural protein)” here?
A: 90%

Q: What about the termination region as percent of total counts with TTF2 (0.04 pmol) and 1 pmol ΔLPDKG mutant (72% with TTF2 alone), in vitro transcription on isolated EECs (blocks TTF2 acting on Pol II) (% of the total counts) [2] of the same substance?
A: 50
